B1: IL-10 Thr6Cys-R4-7 (ligand, human, UniProt P22301 19-178, looked up)
chain: SPGQGCQSENSCTHFPGNLPNMLRDLRDAFSRVKTFFQMKDQLDNLLLKESLLEDFKGYLGCQALSEMIQFYLEEVMPQAENQDPDIKAHVNSLGENLKTLRLRLRRCHRFLPCENKSKAVEQVKNAFNKLQEKGIYKAMSEFDIFINYIEAYMTMKIRN
modifications: R4-7 on Cys 6
notes: mature
B2: IL-10 Asp41Cys-R4-11 (ligand, human, UniProt P22301 19-178, looked up)
chain: SPGQGTQSENSCTHFPGNLPNMLRDLRDAFSRVKTFFQMKCQLDNLLLKESLLEDFKGYLGCQALSEMIQFYLEEVMPQAENQDPDIKAHVNSLGENLKTLRLRLRRCHRFLPCENKSKAVEQVKNAFNKLQEKGIYKAMSEFDIFINYIEAYMTMKIRN
modifications: R4-11 on Cys 41
notes: mature
B3: IL-10 Asp44Cys-S48 (ligand, human, UniProt P22301 19-178, looked up)
chain: SPGQGTQSENSCTHFPGNLPNMLRDLRDAFSRVKTFFQMKDQLCNLLLKESLLEDFKGYLGCQALSEMIQFYLEEVMPQAENQDPDIKAHVNSLGENLKTLRLRLRRCHRFLPCENKSKAVEQVKNAFNKLQEKGIYKAMSEFDIFINYIEAYMTMKIRN
modifications: S48 on Cys 44
notes: mature
B4: IL-10 Asp41Cys-S48 (ligand, human, UniProt P22301 19-178, looked up)
chain: SPGQGTQSENSCTHFPGNLPNMLRDLRDAFSRVKTFFQMKCQLDNLLLKESLLEDFKGYLGCQALSEMIQFYLEEVMPQAENQDPDIKAHVNSLGENLKTLRLRLRRCHRFLPCENKSKAVEQVKNAFNKLQEKGIYKAMSEFDIFINYIEAYMTMKIRN
modifications: S48 on Cys 41
notes: mature
B5: IL-10 Glu142Cys-R4-12 (ligand, human, UniProt P22301 19-178, looked up)
chain: SPGQGTQSENSCTHFPGNLPNMLRDLRDAFSRVKTFFQMKDQLDNLLLKESLLEDFKGYLGCQALSEMIQFYLEEVMPQAENQDPDIKAHVNSLGENLKTLRLRLRRCHRFLPCENKSKAVEQVKNAFNKLQEKGIYKAMSCFDIFINYIEAYMTMKIRN
modifications: R4-12 on Cys 142
notes: mature
B6: IL-10 Asp28Cys-S48 (ligand, human, UniProt P22301 19-178, looked up)
chain: SPGQGTQSENSCTHFPGNLPNMLRDLRCAFSRVKTFFQMKDQLDNLLLKESLLEDFKGYLGCQALSEMIQFYLEEVMPQAENQDPDIKAHVNSLGENLKTLRLRLRRCHRFLPCENKSKAVEQVKNAFNKLQEKGIYKAMSEFDIFINYIEAYMTMKIRN
modifications: S48 on Cys 28
notes: mature
B7: IL-10 Asn45Cys-S48 (ligand, human, UniProt P22301 19-178, looked up)
chain: SPGQGTQSENSCTHFPGNLPNMLRDLRDAFSRVKTFFQMKDQLDCLLLKESLLEDFKGYLGCQALSEMIQFYLEEVMPQAENQDPDIKAHVNSLGENLKTLRLRLRRCHRFLPCENKSKAVEQVKNAFNKLQEKGIYKAMSEFDIFINYIEAYMTMKIRN
modifications: S48 on Cys 45
notes: mature
B8: IL-10 Asp25Cys-R4-12 (ligand, human, UniProt P22301 19-178, looked up)
chain: SPGQGTQSENSCTHFPGNLPNMLRCLRDAFSRVKTFFQMKDQLDNLLLKESLLEDFKGYLGCQALSEMIQFYLEEVMPQAENQDPDIKAHVNSLGENLKTLRLRLRRCHRFLPCENKSKAVEQVKNAFNKLQEKGIYKAMSEFDIFINYIEAYMTMKIRN
modifications: R4-12 on Cys 25
notes: mature
B9: IL-10 Asp144Cys-S48 (ligand, human, UniProt P22301 19-178, looked up)
chain: SPGQGTQSENSCTHFPGNLPNMLRDLRDAFSRVKTFFQMKDQLDNLLLKESLLEDFKGYLGCQALSEMIQFYLEEVMPQAENQDPDIKAHVNSLGENLKTLRLRLRRCHRFLPCENKSKAVEQVKNAFNKLQEKGIYKAMSEFCIFINYIEAYMTMKIRN
modifications: S48 on Cys 144
notes: mature
B10: IL-10 Glu50Cys-S48 (ligand, human, UniProt P22301 19-178, looked up)
chain: SPGQGTQSENSCTHFPGNLPNMLRDLRDAFSRVKTFFQMKDQLDNLLLKCSLLEDFKGYLGCQALSEMIQFYLEEVMPQAENQDPDIKAHVNSLGENLKTLRLRLRRCHRFLPCENKSKAVEQVKNAFNKLQEKGIYKAMSEFDIFINYIEAYMTMKIRN
modifications: S48 on Cys 50
notes: mature
B11: IL-10 Arg27Cys-R4-20 (ligand, human, UniProt P22301 19-178, looked up)
chain: SPGQGTQSENSCTHFPGNLPNMLRDLCDAFSRVKTFFQMKDQLDNLLLKESLLEDFKGYLGCQALSEMIQFYLEEVMPQAENQDPDIKAHVNSLGENLKTLRLRLRRCHRFLPCENKSKAVEQVKNAFNKLQEKGIYKAMSEFDIFINYIEAYMTMKIRN
modifications: R4-20 on Cys 27
notes: mature
B12: IL-10 Gln42Cys-R4-19 (ligand, human, UniProt P22301 19-178, looked up)
chain: SPGQGTQSENSCTHFPGNLPNMLRDLRDAFSRVKTFFQMKDCLDNLLLKESLLEDFKGYLGCQALSEMIQFYLEEVMPQAENQDPDIKAHVNSLGENLKTLRLRLRRCHRFLPCENKSKAVEQVKNAFNKLQEKGIYKAMSEFDIFINYIEAYMTMKIRN
modifications: R4-19 on Cys 42
notes: mature
B13: IL-10 Arg159Cys-R4-20 (ligand, human, UniProt P22301 19-178, looked up)
chain: SPGQGTQSENSCTHFPGNLPNMLRDLRDAFSRVKTFFQMKDQLDNLLLKESLLEDFKGYLGCQALSEMIQFYLEEVMPQAENQDPDIKAHVNSLGENLKTLRLRLRRCHRFLPCENKSKAVEQVKNAFNKLQEKGIYKAMSEFDIFINYIEAYMTMKICN
modifications: R4-20 on Cys 159
notes: mature
B14: IL-10 Asn45Cys-R4-18 (ligand, human, UniProt P22301 19-178, looked up)
chain: SPGQGTQSENSCTHFPGNLPNMLRDLRDAFSRVKTFFQMKDQLDCLLLKESLLEDFKGYLGCQALSEMIQFYLEEVMPQAENQDPDIKAHVNSLGENLKTLRLRLRRCHRFLPCENKSKAVEQVKNAFNKLQEKGIYKAMSEFDIFINYIEAYMTMKIRN
modifications: R4-18 on Cys 45
notes: mature
B15: IL-10 Arg159Cys-S48 (ligand, human, UniProt P22301 19-178, looked up)
chain: SPGQGTQSENSCTHFPGNLPNMLRDLRDAFSRVKTFFQMKDQLDNLLLKESLLEDFKGYLGCQALSEMIQFYLEEVMPQAENQDPDIKAHVNSLGENLKTLRLRLRRCHRFLPCENKSKAVEQVKNAFNKLQEKGIYKAMSEFDIFINYIEAYMTMKICN
modifications: S48 on Cys 159
notes: mature
B16: IL-10 Asp44Cys-R4-11 (ligand, human, UniProt P22301 19-178, looked up)
chain: SPGQGTQSENSCTHFPGNLPNMLRDLRDAFSRVKTFFQMKDQLCNLLLKESLLEDFKGYLGCQALSEMIQFYLEEVMPQAENQDPDIKAHVNSLGENLKTLRLRLRRCHRFLPCENKSKAVEQVKNAFNKLQEKGIYKAMSEFDIFINYIEAYMTMKIRN
modifications: R4-11 on Cys 44
notes: mature
B17: IL-10 Gln42Cys-S48 (ligand, human, UniProt P22301 19-178, looked up)
chain: SPGQGTQSENSCTHFPGNLPNMLRDLRDAFSRVKTFFQMKDCLDNLLLKESLLEDFKGYLGCQALSEMIQFYLEEVMPQAENQDPDIKAHVNSLGENLKTLRLRLRRCHRFLPCENKSKAVEQVKNAFNKLQEKGIYKAMSEFDIFINYIEAYMTMKIRN
modifications: S48 on Cys 42
notes: mature
B18: IL-10 Asp28Cys-R4-11 (ligand, human, UniProt P22301 19-178, looked up)
chain: SPGQGTQSENSCTHFPGNLPNMLRDLRCAFSRVKTFFQMKDQLDNLLLKESLLEDFKGYLGCQALSEMIQFYLEEVMPQAENQDPDIKAHVNSLGENLKTLRLRLRRCHRFLPCENKSKAVEQVKNAFNKLQEKGIYKAMSEFDIFINYIEAYMTMKIRN
modifications: R4-11 on Cys 28
notes: mature
B19: IL-10 Asn148Cys-S48 (ligand, human, UniProt P22301 19-178, looked up)
chain: SPGQGTQSENSCTHFPGNLPNMLRDLRDAFSRVKTFFQMKDQLDNLLLKESLLEDFKGYLGCQALSEMIQFYLEEVMPQAENQDPDIKAHVNSLGENLKTLRLRLRRCHRFLPCENKSKAVEQVKNAFNKLQEKGIYKAMSEFDIFICYIEAYMTMKIRN
modifications: S48 on Cys 148
notes: mature
B20: IL-10 Gln38Cys-R4-19 (ligand, human, UniProt P22301 19-178, looked up)
chain: SPGQGTQSENSCTHFPGNLPNMLRDLRDAFSRVKTFFCMKDQLDNLLLKESLLEDFKGYLGCQALSEMIQFYLEEVMPQAENQDPDIKAHVNSLGENLKTLRLRLRRCHRFLPCENKSKAVEQVKNAFNKLQEKGIYKAMSEFDIFINYIEAYMTMKIRN
modifications: R4-19 on Cys 38
notes: mature
B21: IL-10 Gln38Cys-S48 (ligand, human, UniProt P22301 19-178, looked up)
chain: SPGQGTQSENSCTHFPGNLPNMLRDLRDAFSRVKTFFCMKDQLDNLLLKESLLEDFKGYLGCQALSEMIQFYLEEVMPQAENQDPDIKAHVNSLGENLKTLRLRLRRCHRFLPCENKSKAVEQVKNAFNKLQEKGIYKAMSEFDIFINYIEAYMTMKIRN
modifications: S48 on Cys 38
notes: mature
B22: IL-10 Asn148Cys-R4-18 (ligand, human, UniProt P22301 19-178, looked up)
chain: SPGQGTQSENSCTHFPGNLPNMLRDLRDAFSRVKTFFQMKDQLDNLLLKESLLEDFKGYLGCQALSEMIQFYLEEVMPQAENQDPDIKAHVNSLGENLKTLRLRLRRCHRFLPCENKSKAVEQVKNAFNKLQEKGIYKAMSEFDIFICYIEAYMTMKIRN
modifications: R4-18 (printed R418) on Cys 148
notes: mature
B23: IL-10 Arg27Cys-S48 (ligand, human, UniProt P22301 19-178, looked up)
chain: SPGQGTQSENSCTHFPGNLPNMLRDLCDAFSRVKTFFQMKDQLDNLLLKESLLEDFKGYLGCQALSEMIQFYLEEVMPQAENQDPDIKAHVNSLGENLKTLRLRLRRCHRFLPCENKSKAVEQVKNAFNKLQEKGIYKAMSEFDIFINYIEAYMTMKIRN
modifications: S48 on Cys 27
notes: mature
B24: IL-10 Glu50Cys-R4-12 (ligand, human, UniProt P22301 19-178, looked up)
chain: SPGQGTQSENSCTHFPGNLPNMLRDLRDAFSRVKTFFQMKDQLDNLLLKCSLLEDFKGYLGCQALSEMIQFYLEEVMPQAENQDPDIKAHVNSLGENLKTLRLRLRRCHRFLPCENKSKAVEQVKNAFNKLQEKGIYKAMSEFDIFINYIEAYMTMKIRN
modifications: R4-12 on Cys 50
notes: mature
B25: IL-10 Asp144Cys-R4-11 (ligand, human, UniProt P22301 19-178, looked up)
chain: SPGQGTQSENSCTHFPGNLPNMLRDLRDAFSRVKTFFQMKDQLDNLLLKESLLEDFKGYLGCQALSEMIQFYLEEVMPQAENQDPDIKAHVNSLGENLKTLRLRLRRCHRFLPCENKSKAVEQVKNAFNKLQEKGIYKAMSEFCIFINYIEAYMTMKIRN
modifications: R4-11 on Cys 144
notes: mature

Each binder was assayed against T1, IL-10R1-Fc (UniProt Q13651 22-235, limits assumed) (assay: ELISA, IL-10R1-Fc coated).
T1 sequence (looked up): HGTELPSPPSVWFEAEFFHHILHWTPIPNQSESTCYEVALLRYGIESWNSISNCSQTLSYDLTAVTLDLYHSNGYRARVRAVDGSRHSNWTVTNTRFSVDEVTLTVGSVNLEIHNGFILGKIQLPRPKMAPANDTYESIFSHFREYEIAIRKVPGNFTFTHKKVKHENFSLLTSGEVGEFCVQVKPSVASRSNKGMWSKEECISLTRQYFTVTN
B1 was tested, and the “Binding recovery (>60%)” value was 101%. B2 was tested, and the “Binding recovery (>60%)” value was 95.2%. In the case of B3, the “Decreased fold of binding to ligand after Conjugating with S48” value (“Decreased fold of binding to ligand” for short) is reported as 43 fold. B4 was tested, and the “Decreased fold of binding to ligand” value was 13 fold. With B5 the “Binding recovery (>60%)” value was 78%. In the case of B6, the “Decreased fold of binding to ligand” value is reported as 30 fold. In the case of B7, the “Decreased fold of binding to ligand” value is reported as 7 fold. For B8, the “Binding recovery (>60%)” value was 97.1%. B9 was tested, and the “Decreased fold of binding to ligand” value was 15 fold. With B10 the “Decreased fold of binding to ligand” value was 4 fold. With B11 the “Binding recovery (>60%)” value was 86.6%. In the case of B12, the “Binding recovery (>60%)” value is reported as 90%. With B13 the “Binding recovery (>60%)” value was 99%. In the case of B14, the “Binding recovery (>60%)” value is reported as 97.7%. B15 was tested, and the “Decreased fold of binding to ligand” value was 3 fold. B16 was tested, and the “Binding recovery (>60%)” value was 92.1%. With B17 the “Decreased fold of binding to ligand” value was 18 fold. For B18, the “Binding recovery (>60%)” value was 92.3%. In the case of B19, the “Decreased fold of binding to ligand” value is reported as 10 fold. With B20 the “Binding recovery (>60%)” value was 87%. B21 was tested, and the “Decreased fold of binding to ligand” value was 52 fold. In the case of B22, the “Binding recovery (>60%)” value is reported as 84.3%. B23 was tested, and the “Decreased fold of binding to ligand” value was 12 fold. With B24 the “Binding recovery (>60%)” value was 99.8%. In the case of B25, the “Binding recovery (>60%)” value is reported as 90.5%.
